PMC10292035

Target: E. cloacae Cap2 C109A/C548A (catalytically dead), untagged (Enterobacter cloacae)
Assay: cryo-EM structure

## E. cloacae Cap2 C109A/C548A (catalytically dead), untagged (enzyme)
  stoichiometry N: 2
